Measurements: patent publication US20250206799A1 (KEROS THERAPEUTICS, published 2025)

B1: extracellular ActRIIA (SEQ ID NO: 16) fused to the N-terminus of hFc through a GGG linker (Fc fusion)
chain: AILGRSETQECLFFNANWEKDRTNQTGVEPCYGDKDKRRHCFATWKNISGSIEIVKQGCWLDDINCYDRTDCVEKKDSPEVYFCCCEGNMCNEKFSYFPEMEVTQPTSGGG
notes: also called ActRIIA-Fc; not shown: hFc
B2: ActRIIB 2.11 (SEQ ID NO: 14)-Fc (Fc fusion, not shown: a dimerising Fc or GST)
chain: GRGEAETRECLYYNANWELERTNQSGVERCEGEKDKRLHCYASWRNSSGSLEIVKKGCWLDDFNCYDRTDCVATKENPQVYFCCCEGNMCNERFTHLPEAGGPEVTYEPPPTAPT
notes: also called ActRIIB 2.11 variant; ActRIIB 2.11-Fc
B3: ActRIIB 2.12 (SEQ ID NO: 15)-Fc (Fc fusion, not shown: a dimerising Fc or GST)
chain: GRGEAETRECLYYNANWELERTNQSGVERCEGEKDKRLHCYASWRNSSGSLEIVKKGCWLDDFNCYDRDTCVATKENPQVYFCCCEGNMCNERFTHLPEAGGPEVTYEPPPTAPT
notes: also called ActRIIB 2.12 variant; ActRIIB 2.12-Fc
B4: extracellular ActRIIB variant ActRIIB 2.01 (SEQ ID NO: 4) fused to the N-terminus of hFc through a GGG linker (Fc fusion)
chain: GRGEAETRECIYYNANWELERTNQSGLERCEGEQDKRLHCYASWRNSSGTIELVKKGCWLDDFNCYDRQECVAKKDSPEVYFCCCEGNFCNERFTHLPEAGGPEVTYEPPPTAPTGGG
notes: also called ActRIIB 2.01 variant; not shown: hFc
B5: extracellular ActRIIB variant ActRIIB 2.02 (SEQ ID NO: 5) fused to the N-terminus of hFc through a GGG linker (Fc fusion)
chain: GRGEAETRECIYYNANWELERTNQTGLERCEGEQDKRLHCYASWRNISGTIELVKKGCWLDDFNCYDRQECVAKKDSPEVYFCCCEGNFCNERFTHLPEAGGPEVTYEPPPTAPTGGG
notes: also called ActRIIB 2.02 variant; not shown: hFc
B6: BMP-9 (ligand, UniProt Q9UK05 320-429, looked up)
chain: SAGAGSHCQKTSLRVNFEDIGWDSWIIAPKEYEAYECKGGCFFPLADDVTPTKHAIVQTLVHLKFPTKVGKACCVPTKLSPISVLYKDDMGVPTLKYHYEGMSVAECGCR
notes: also called bone morphogenetic protein 9
B7: extracellular ActRIIB variant ActRIIB 2.06 (SEQ ID NO: 9) fused to the N-terminus of hFc through a GGG linker (Fc fusion)
chain: GRGEAETRECIYYNANWELERTNQSGLERCEGEQDKRLHCFASWKNSSGTIELVKQGCWLDDFNCYDRQECVAKKDSPEVYFCCCEGNFCNERFTHLPEAGGPEVTYEPPPTAPTGGG
notes: also called ActRIIB 2.06 variant; not shown: hFc
B8: extracellular ActRIIB variant ActRIIB 2.08 (SEQ ID NO: 11) fused to the N-terminus of hFc through a GGG linker (Fc fusion)
chain: GRGEAETRECIYYNANWELERTNQSGLERCYGDQDKRRHCYASWRNSSGTIELVKKGCWLDDFNCYDRQECVAKKDSPEVYFCCCEGNFCNERFTHLPEAGGPEVTYEPPPTAPTGGG
notes: also called ActRIIB 2.08 variant; not shown: hFc
B9: growth differentiation factor 11 (GDF11) (ligand, UniProt O95390 299-407, looked up)
chain: NLGLDCDEHSSESRCCRYPLTVDFEAFGWDWIIAPKRYKANYCSGQCEYMFMQKYPHTHLVQQANPRGSAGPCCTPTKMSPINMLYFNDKQQIIYGKIPGMVVDRCGCS
B10: extracellular ActRIIB variant ActRIIB 2.07 (SEQ ID NO: 10) fused to the N-terminus of hFc through a GGG linker (Fc fusion)
chain: GRGEAETRECIFYNANWEKDRTNQSGLERCEGEQDKRLHCYASWRNSSGTIELVKKGCWLDDFNCYDRQECVAKKDSPEVYFCCCEGNFCNERFTHLPEAGGPEVTYEPPPTAPTGGG
notes: also called ActRIIB 2.07 variant; not shown: hFc
B11: Activin A (ligand, UniProt P08476 311-426, looked up)
chain: GLECDGKVNICCKKQFFVSFKDIGWNDWIIAPSGYHANYCEGECPSHIAGTSGSSLSFHSTVINHYRMRGHSPFANLKSCCVPTKLRPMSMLYYDDGQNIIKKDIQNMIVEECGCS
B12: Activin B (ligand, UniProt P09529 293-407, looked up)
chain: GLECDGRTNLCCRQQFFIDFRLIGWNDWIIAPTGYYGNYCEGSCPAYLAGVPGSASSFHTAVVNQYRMRGLNPGTVNSCCIPTKLSTMSMLYFDDEYNIVKRDVPNMIVEECGCA
B13: extracellular ActRIIB variant ActRIIB 2.04 (SEQ ID NO: 7) fused to the N-terminus of hFc through a GGG linker (Fc fusion)
chain: GRGEAETRECIYYNANWELERTNQSGLEPCEGEQDKRLHCYASWRNSSGTIELVKKGCWLDDFNCYDRQECVAKKDSPEVYFCCCEGNFCNERFTHLPEAGGPEVTYEPPPTAPTGGG
notes: also called ActRIIB 2.04 variant; not shown: hFc
B14: extracellular ActRIIB variant ActRIIBΔ9 (SEQ ID NO: 3) fused to the N-terminus of hFc through a GGG linker (Fc fusion)
chain: GRGEAETRECIYYNANWELDRTNQSGLERCEGEQDKRLHCYASWRNSSGTIELVKKGCWLDDINCYDRQECVATKENPQVYFCCCEGNFCNERFTHLPEAGGPEVTYEPPPTAPTGGG
notes: also called ActRIIBΔ9 variant; not shown: hFc
B15: extracellular ActRIIB variant ActRIIB 2.05 (SEQ ID NO: 8) fused to the N-terminus of hFc through a GGG linker (Fc fusion)
chain: GRGEAETRECIYYNANWELERTNQSGLERCYGDKDKRLHCYASWRNSSGTIELVKKGCWLDDFNCYDRQECVAKKDSPEVYFCCCEGNFCNERFTHLPEAGGPEVTYEPPPTAPTGGG
notes: also called ActRIIB 2.05 variant; not shown: hFc
B16: extracellular ActRIIB variant ActRIIB 2.03 (SEQ ID NO: 6) fused to the N-terminus of hFc through a GGG linker (Fc fusion)
chain: GRGEAETRECIYYNANWELERTNQTGLERCEGEQDKRLHCYASWRNITGTIELVKKGCWLDDFNCYDRQECVAKKDSPEVYFCCCEGNFCNERFTHLPEAGGPEVTYEPPPTAPTGGG
notes: also called ActRIIB 2.03 variant; not shown: hFc
B17: extracellular ActRIIB variant ActRIIB/A (SEQ ID NO: 2) fused to the N-terminus of hFc through a GGG linker (Fc fusion)
chain: GRGEAETRECIFYNANWEKDRTNQSGLEPCYGDQDKRRHCFASWKNSSGTIELVKQGCWLDDINCYDRQECVAKKDSPEVYFCCCEGNFCNERFTHLPEAGGPEVTYEPPPTAPTGGG
notes: also called ActRIIB/A variant; not shown: hFc
B18: extracellular ActRIIB variant ActRIIB 2.09 (SEQ ID NO: 12) fused to the N-terminus of hFc through a GGG linker (Fc fusion)
chain: GRGEAETRECLYYNANWELERTNQSGVERCEGEKDKRLHCYASWRNSSGSLEIVKKGCWLDDFNCYDRTDCVATEENPQVYFCCCEGNMCNERFTHLPEAGGPEVTYEPPPTAPTGGG
notes: also called ActRIIB 2.09 variant; not shown: hFc
B19: extracellular ActRIIB variant ActRIIB 2.10 (SEQ ID NO: 13) fused to the N-terminus of hFc through a GGG linker (Fc fusion)
chain: GRGEAETRECLYYNANWELERTNQSGVERCEGEKDKRLHCYASWRNSSGSLEIVKKGCWLDDFNCYDRDTCVATEENPQVYFCCCEGNMCNERFTHLPEAGGPEVTYEPPPTAPTGGG
notes: also called ActRIIB 2.10 variant; not shown: hFc

Tests used:
[1] = target: B12; experiment: SPR (Biacore 3000), ActRII-Fc captured by anti-Fc antibody, ligand in solution
Source text: (§1) The GE Biacore 3000 was used to measure the kinetics of the interactions between the ActRIIB-Fc variants and the ligands Activin A, Activin B, growth differentiation factor 11 (GDF11), and BMP-9. ActRIIA, ActRIIB, ActRIIB 2.06, ActRIIB 2.11 and ActRIIB 2.12 were recombinant proteins. All other ActRIIB-Fc variants were expressed by transient expression in HEK293 cells and purified from the conditioned media using Protein-A Sepharose chromatography. Flow cells 1-4 were immobilized with anti-human/anti-mouse capture antibodies from GE using the amine coupling kit. The ActRII-Fc proteins were then captured on the chip in flow cells 2-4, with flow cell 1 being left empty as a reference cell to measure and subtract any nonspecific binding. HBS-EP+ buffer from GE Healthcare™ was used as a running buffer. Each ligand was run in a duplicate concentration series at 40 μl/min to avoid mass transport effects. All data was collected on a CM-5 chip except for GDF-11, which used CM-4. The data was analyzed using Scrubber2 by BioLogic™ Software to calculate the KD of each interaction (Table 3).

[2] = target: B11; experiment: as above
Source text: as §1

[3] = target: B9; experiment: SPR (Biacore 3000), ActRII-Fc captured by anti-Fc antibody, ligand in solution, CM-4 chip
Source text: as §1

[4] = target: B6; experiment: SPR (Biacore 3000), ActRII-Fc captured by anti-Fc antibody, ligand in solution
Source text: as §1

[5] = target: T1, extracellular ActRIIB (SEQ ID NO: 17) fused to the N-terminus of hFc through a GGG linker (human, UniProt Q13705 20-134); experiment: as above
T1 construct: also called ActRIIB-Fc; not shown: hFc
T1 sequence: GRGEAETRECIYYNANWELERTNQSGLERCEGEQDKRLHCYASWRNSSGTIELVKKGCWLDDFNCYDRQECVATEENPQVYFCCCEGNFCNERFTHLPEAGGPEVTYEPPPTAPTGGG
Source text: as §1

[6] = target: B1; experiment: as above
Source text: as §1

[7] = target: T1, extracellular ActRIIB (SEQ ID NO: 17) …; experiment: SPR (Biacore 3000), ActRII-Fc captured by anti-Fc antibody, ligand in solution, CM-4 chip
Source text: as §1

[8] = target: B1; experiment: as above
Source text: as §1

[9] = target: T2, BMP-9, Q9UK05; experiment: SPR (Biacore 3000), ActRII-Fc captured by anti-Fc antibody, ligand in solution; details: remark: other sources report otherwise
T2 chain: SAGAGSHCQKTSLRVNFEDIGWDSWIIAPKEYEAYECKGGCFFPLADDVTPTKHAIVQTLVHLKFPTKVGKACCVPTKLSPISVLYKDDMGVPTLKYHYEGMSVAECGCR

Kd [1] [nM]	Kd [2] [nM]	Kd [4] [nM]	binding result [3]	binding result [1]	binding result [4]	binding result [2]	other results	Binder
0.37	1							B1
0.37	0.78	2.7					Kd [3]: 0.24 nM	B2
0.16	0.14	31					Kd [3]: 0.13 nM	B3
			no binding	no binding	no binding	no binding		B4
			no binding	no binding	no binding	no binding		B5
							Kd [5]: 0.28 nM; Kd [6]: 25 nM	B6
0.1	0.053	0.3					Kd [3]: 0.027 nM	B7
			no binding	no binding	no binding	no binding		B8
							Kd [7]: 0.12 nM; Kd [8]: 0.081 nM	B9
			no binding	no binding	no binding	no binding		B10
							Kd [5]: 0.063 nM	B11
							Kd [5]: 0.023 nM	B12
			no binding	no binding	no binding	no binding		B13
400	390	28					Kd [3]: 530 nM	B14
			no binding	no binding	no binding	no binding		B15
			no binding	no binding	no binding	no binding		B16
			no binding	no binding		no binding	Kd [9]: 88 nM	B17
0.16	0.1	0.44						B18
0.28	0.45	1.7						B19
